Assay results reported in patent publication US20170210824A1 (SALK INSTITUTE FOR BIOLOGICAL STUDIES, published 2017).
Where no end group is shown, it is not given here. [ ]: non-standard residue; d: D form. pY = N[C@@H](Cc1ccc(OP(=O)(O)O)cc1)C(=O)O

How the values were obtained:
[1] = biological target: T1, Nck pY105 peptide (CGERLpYDLNMPAYVK); assay: pTyr peptide dot blot
T1 construct: also called pTyr (NCK) peptide; pTyr peptide (Nck pY105)
T1 peptide: CGERL[pY]DLNMPAYVK

[2] = biological target: T2, Nck Y105 peptide (CGERLYDLNMPAYVK); assay: pTyr peptide dot blot
T2 construct: also called unphosphorylated Nck peptide
T2 peptide: CGERLYDLNMPAYVK

[3] = biological target: T3, Eck (Ephrin A2) pY588 peptide (CLKPLKTpYVD); assay: pTyr peptide dot blot
T3 construct: also called Eck/EphA2 pTyr peptide
T3 peptide: CLKPLKT[pY]VD

[4] = biological target: T4, Eck (Ephrin A2) Y588 peptide (CLKPLKTYVD); assay: pTyr peptide dot blot
T4 construct: also called unphosphorylated Eck peptide
T4 peptide: CLKPLKTYVD

[5] = biological target: T5, FAK pY397 peptide (AVSVSETDDpYAEIIDEEDTYT) (phosphotyrosine at position 10 (pY397)); assay: pTyr peptide dot blot
T5 construct: also called FAK pTyr peptide
T5 peptide: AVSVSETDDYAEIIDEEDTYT

[6] = biological target: T6, FLAG-NME1 with 1-pHis, in stably transfected HEK293 cells (UniProt P15531 1-152, limits assumed, 1-phosphohistidine (generated in vivo)); assay: immunoblot of FLAG-NME1 293 cell lysates
T6 construct: not shown: FLAG tag
Method: Immunoblotting with anti-pHis antibodies: In general, immunoblotting with anti-pHis antibodies was performed with modifications to standard procedures to help preserve pHis for detection. Buffers were adjusted to pH 8-9 to stabilize pHis and methods were modified to avoid heating samples. Protein samples were prepared in pH 8.8 sample buffer (5×=10% SDS, 250 mM Tris-HCl, pH 8.8, 0.02% Bromophenol blue, 50% glycerol, 50 mM EDTA, 500 mM DTT) for electrophoresis. Mammalian whole cell lysates were prepared by rinsing 70-100% confluent 10 cm² dishes twice with 5 ml cold TD buffer (TBS −/−, pH 8). Cells were scraped directly into 2× pH 8.8 sample buffer, incubated on ice and a cup horn sonicator was used (3-5×5 sec bursts) to disrupt cells and shear DNA. Lysates were clarified by centrifugation (14,000×g for 5-15 min at 4° C.) and analyzed immediately using freshly prepared Bis-Tris polyacrylamide minigels with a modified, pH 8.8 stacking gel and either 10% or 12.5% resolving gels. Electrophoresis buffer recipes were as follows: Running Buffer: (1×20 L, pH 8.5) 20 g SDS, 60 g Trizma Base, 288 g glycine, dH₂0 to 20 L, Transfer Buffer: (1×4 L, pH 8.5) 56.7 g glycine, 4 g SDS, 12 g Trizma Base, 800 ml MeOH, dH₂0 to 4 L. All electrophoresis steps were performed at 4° C. and samples were resolved at 90-100V for 2-3 hr. […]

Measured: binding result

T6 sequence (P15531 whole entry): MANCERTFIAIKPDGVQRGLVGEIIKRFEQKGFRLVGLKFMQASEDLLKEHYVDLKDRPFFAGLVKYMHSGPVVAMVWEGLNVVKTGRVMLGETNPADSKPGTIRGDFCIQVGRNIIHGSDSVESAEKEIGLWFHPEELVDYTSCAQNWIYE

B1: 3-pHis mAb SC39-4 (antibody, V domains shown)
VH: ESGGRLVTPGGSLTLTCTVSGFSLSRYNMGWVRQAPGKGLEWIGWIPFRGSLKYATWATGRFTISRTSTTVDLRMTGLTAADTATYFCVRSSDGFDLWGPGTLVTVSS
VL: QFVMTQTPASVEAVVGGTVTIKCQASRDTGDGLIWYQQKPGQPPKRLIYKASTVASGVPSRFKGRGSGTDFTLTISDLECADAATYYCHSNFYNRWTYGNAFGGGTEVVVKG
notes: Rabbit hybridoma monoclonal IgG; also called anti-3-pHis mAb SC39-4; SC39s (subclones of MC39)
no binding: all assays above
